This passage reports binding results from publication PMC3431237.

Data set [1] deals with T1, PbrR (Cupriavidus metallidurans CH34 (plasmid pMOL30)) (UniProt Q58AJ5).
T1 sequence: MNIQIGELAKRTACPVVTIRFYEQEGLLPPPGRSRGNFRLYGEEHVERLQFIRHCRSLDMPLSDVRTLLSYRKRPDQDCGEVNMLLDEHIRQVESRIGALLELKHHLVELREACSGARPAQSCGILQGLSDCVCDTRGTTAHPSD
Kind of data set: EMSA. The settings on record: not given in material (gel retardation and DNase I protection as in cited refs 36 and 37).

Data set [2] addresses T1, PbrR (Cupriavidus metallidurans CH34 (plasmid pMOL30)). Nature of the data set: DNase I footprinting. Conditions: not given in material (gel retardation and DNase I protection as in cited refs 36 and 37).

Turning to “GCGAATGGTCACCACCGGGCATGCGGTGCGCTTGGCAAGCTCGCCGATCTGGATATTCATGGCGTCGGATGGGAGATGTCTTGACTCTATAGTAACTAGAGGGTGTTAAATCGGCAACGCGAGATGAATACACACAAGGGGTTGCCATGAGCGAATGTGGCTCGAAGGGATGTGGCTGCGCTTCCGTTGCGACGCGCAACCCAGAACCGAGCACGGTTGGCGCGGGGCTGAAGCAGGCGCGCTACCGAATCGAAAACATGGACTGTCCGACCGAAGAGGCGCTGATTCGCGACAAGC (double strand) [PpbrA 296 bp PCR product]”, the binding result in data set [1] and in data set [2] was “binds” in each case.
